Results taken from article doi:10.1101/2023.01.25.525455.

Legend:
[1] = target: GFP-tagged VPS35L(I761G) (human) (UniProt Q7Z3J2); assay: co-IP
[2] = target: GFP-tagged VPS35L with complete deletion of the β-hairpin (human) (UniProt Q7Z3J2); assay: co-IP
GFP-tagged VPS35L with complete deletion of the β-hairpin (human), sequence (Q7Z3J2 whole entry, stated change not applied): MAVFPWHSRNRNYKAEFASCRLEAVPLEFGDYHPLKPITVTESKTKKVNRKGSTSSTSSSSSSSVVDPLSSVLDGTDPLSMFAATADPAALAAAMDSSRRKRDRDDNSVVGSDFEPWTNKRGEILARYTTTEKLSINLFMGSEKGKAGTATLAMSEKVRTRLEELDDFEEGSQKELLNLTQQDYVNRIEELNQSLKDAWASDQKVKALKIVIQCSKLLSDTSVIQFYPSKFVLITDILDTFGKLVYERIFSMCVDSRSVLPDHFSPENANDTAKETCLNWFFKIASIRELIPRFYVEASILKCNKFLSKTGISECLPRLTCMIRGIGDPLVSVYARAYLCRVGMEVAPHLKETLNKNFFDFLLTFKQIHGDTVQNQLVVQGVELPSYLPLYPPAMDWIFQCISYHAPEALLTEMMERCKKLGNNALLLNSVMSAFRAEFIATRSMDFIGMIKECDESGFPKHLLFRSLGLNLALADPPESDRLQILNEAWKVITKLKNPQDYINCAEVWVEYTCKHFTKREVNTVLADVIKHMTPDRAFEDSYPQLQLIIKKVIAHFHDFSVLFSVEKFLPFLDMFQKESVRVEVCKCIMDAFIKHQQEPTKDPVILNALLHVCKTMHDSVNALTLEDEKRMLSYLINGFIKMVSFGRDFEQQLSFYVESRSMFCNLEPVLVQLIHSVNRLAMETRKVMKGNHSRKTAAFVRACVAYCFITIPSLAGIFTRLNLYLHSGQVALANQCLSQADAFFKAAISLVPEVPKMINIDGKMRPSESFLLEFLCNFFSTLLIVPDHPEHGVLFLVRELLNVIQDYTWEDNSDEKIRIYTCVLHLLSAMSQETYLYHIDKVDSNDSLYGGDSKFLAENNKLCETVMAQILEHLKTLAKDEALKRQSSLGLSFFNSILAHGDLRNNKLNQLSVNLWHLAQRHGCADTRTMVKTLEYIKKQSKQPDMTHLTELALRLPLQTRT

GFP-tagged VPS35L(I761G) (human), sequence (Q7Z3J2 whole entry I761G): as the sequence (Q7Z3J2 whole entry, stated change not applied) above, with I761G counted along it

With “VPS29 (endogenous, HEK293T) (from UniProt Q9UBQ0 1-182) (natural protein)” the percent reduction in binding (against wild type) [1] was over 50% and the percent reduction in binding (against wild type) [2] was over 50%.
